According to PMC8212047:

Key:
Assay in all cases: SPR
[1] = target: RGN10933 (human)
[2] = target: RGN10987 (human)
[3] = target: CB6 (human)

Measured: binding relative to WT RBD

Chain of RGN10933 (human) (heavy, as listed by the source, chain 1 of 2): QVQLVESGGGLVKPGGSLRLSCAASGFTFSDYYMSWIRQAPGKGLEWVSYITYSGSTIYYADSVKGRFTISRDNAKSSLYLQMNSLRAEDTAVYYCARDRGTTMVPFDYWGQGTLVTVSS
Chain of RGN10933 (human) (light, as listed by the source, chain 2 of 2): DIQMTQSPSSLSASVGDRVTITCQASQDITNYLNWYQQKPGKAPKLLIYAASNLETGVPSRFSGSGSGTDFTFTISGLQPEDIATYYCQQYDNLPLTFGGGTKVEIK
Chain of RGN10987 (human) (heavy, as listed by the source, chain 1 of 2): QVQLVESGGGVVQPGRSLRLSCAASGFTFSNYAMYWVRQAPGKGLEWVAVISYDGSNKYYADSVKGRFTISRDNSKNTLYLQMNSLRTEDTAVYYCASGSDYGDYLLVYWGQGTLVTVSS
Chain of RGN10987 (human) (light, as listed by the source, chain 2 of 2): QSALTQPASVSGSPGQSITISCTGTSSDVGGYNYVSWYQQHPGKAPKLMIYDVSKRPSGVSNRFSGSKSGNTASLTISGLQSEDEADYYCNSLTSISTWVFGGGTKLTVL

RBD T345I-FC fusion protein (from UniProt P0DTC2)
> 50%: all assays above

RBD Y505W-FC fusion protein (from UniProt P0DTC2)
> 50%: all assays above

RBD A475V-FC fusion protein (from UniProt P0DTC2)
> 50%: all assays above
